This data set relates to K4 kissing-loop RNA reporter. In words: apparent KD of K4 kissing-loop reporter; higher = weaker reporter binding. The settings on record: Eterna round: R107. Here is the method: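 RNA-MaP round R107: designed RNA switches with theophylline, tryptophan, arginine or FMN aptamers are transcribed on-chip within common flanks. They are titrated with a labelled K4 kissing-loop RNA reporter in RNA-MaP buffer (100 mM Tris pH 7.5, 80 mM KCl, 4 mM MgCl2), without ligand or with the indicated ligand. Median apparent KD per design.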

Setting [1] is: input ligand: theophylline 20 uM.
The mark [2] stands for this setting: input ligand: tryptophan 2.4 mM.
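Also: bound reporter read as fluorescence of individual clusters on recovered sequencing chips by microscopy, with normalized cluster intensities fitted with a binding model.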

For the sequence “GCAGUGAUGUUGCGCGGGUACGGUGGAGUGCGAGGACCGGUACGGCCGCCACUCGUACGGAACUGGCUAAUAUAUGGAUAGGUGA [VI]”, the “apparent KD of K4 kissing-loop reporter” value was found to be 397 nM (input ligand: FMN 200 uM); 291 nM (input ligand: arginine 13.2 mM); 383 nM (input ligand: none); 379 nM under setting [1]; 336 nM under setting [2].
Consider “GCAGUGAUGUUGCGGAUGUACAGUGGAGUGCGAGGACCGGUACGGCCGCCACUCGUACAGAACAAGCUAAUACAUCGAUAGGUGA [XI]”, for which the “apparent KD of K4 kissing-loop reporter” value is, setting by setting: (input ligand: FMN 200 uM) 323 nM; (input ligand: arginine 13.2 mM) 358 nM; (input ligand: none) 461 nM; under setting [1], 409 nM; under setting [2], 339 nM.
“GCAUAGCAGACGUUGAGUGGGAGCCAGGCACGAGGACCGGUACGGCCGCCACUCGACUAGGUUUUCAGUGAUGUUGAAAAUUUAG [Exclusion Tryptophan A GF4]”: the “apparent KD of K4 kissing-loop reporter” value reads like this: (input ligand: FMN 200 uM) 151 nM; (input ligand: arginine 13.2 mM) 141 nM; (input ligand: none) 142 nM; under setting [1], 140 nM; under setting [2], 156 nM.
Consider “GCAUAUACGAGAAGGAGCGUGCAUGACGAAUUAAUCAUCGACCUUAGUGAUGUUAAGGACGCACAGGUAGGUCGCUCGUGUAUGC [#04 K4 Arginine B Same State]”, for which the “apparent KD of K4 kissing-loop reporter” value (input ligand: FMN 200 uM) turned out to be 380 nM; the “apparent KD of K4 kissing-loop reporter” value (input ligand: arginine 13.2 mM) was 322 nM; the “apparent KD of K4 kissing-loop reporter” value (input ligand: none) came to 347 nM; the “apparent KD of K4 kissing-loop reporter” value under setting [1] was found to be 345 nM; the “apparent KD of K4 kissing-loop reporter” value under setting [2] was 354 nM.
With “GCCAGAGCGCGAAGGAGCGCCGUGACAGGUUGCUGCCGUGGGCAGUGAUGUUGCUCAGUCCGGCAGGUAGGUCGCGUGCUCUGGC”, the “apparent KD of K4 kissing-loop reporter” value (input ligand: FMN 200 uM) worked out at 422 nM; the “apparent KD of K4 kissing-loop reporter” value (input ligand: arginine 13.2 mM) came out at 434 nM; the “apparent KD of K4 kissing-loop reporter” value (input ligand: none) was found to be 548 nM; the “apparent KD of K4 kissing-loop reporter” value under setting [1] was 433 nM; the “apparent KD of K4 kissing-loop reporter” value under setting [2] amounted to 372 nM.
As for “GCCAGUGAUGUUGGCGAACCAACGCAUGCAGAGGAUAUUCGUUCGGGAAGAAGGCUGCAGCGUUCUCUCCCGCAGUGAUGUUGCG [Same State FMN A GF 25]”, the “apparent KD of K4 kissing-loop reporter” value was determined as 164 nM (input ligand: FMN 200 uM); 141 nM (input ligand: arginine 13.2 mM); 169 nM (input ligand: none); 153 nM under setting [1]; 150 nM under setting [2].
Consider “GCCAGUGAUGUUGGCGAACCGACGCAUGCAGAGGAUAUUCGAUCUUGAAGAAGGCUGCAGCGUCAUCAUACGCAGUGAUGUUGCG [Same State FMN A GF 27]”, for which the “apparent KD of K4 kissing-loop reporter” value reads like this: (input ligand: FMN 200 uM) 172 nM; (input ligand: arginine 13.2 mM) 156 nM; (input ligand: none) 182 nM; under setting [1], 161 nM; under setting [2], 139 nM.
For “GCCGCCGCGGCAGGAUAUAGGUUCAUGGAGUGAUGUUCCAUAACCCGAGUGAUGUUCGUUAUCCGCCUAGAAGGGCCGCGGCGGC” the same measures were 201 nM, 166 nM, 205 nM, 177 nM and 169 nM.
Consider “GCCGUACGCAUGGAUACCAGCAUCAGAUCUUAGUGAUGUUAAGUCGAGAGUUGGUCAAAAUGCCCUUGGCAGCCAUGCGUACGGC”, for which the “apparent KD of K4 kissing-loop reporter” value turned out to be 128 nM (input ligand: FMN 200 uM); 90.8 nM (input ligand: arginine 13.2 mM); 105 nM (input ligand: none); 99.5 nM under setting [1]; 98.2 nM under setting [2].
Turning to “GCCGUACGCAUGGAUACCAGCUAUUAGAGUGAUGUUCUAUGGCCCUGCCAGAGUAGCUGUAGCCCUUGGCAGCCAUGCGUACGGC”, the “apparent KD of K4 kissing-loop reporter” value by setting is: (input ligand: FMN 200 uM) 148 nM; (input ligand: arginine 13.2 mM) 119 nM; (input ligand: none) 130 nM; under setting [1], 144 nM; under setting [2], 140 nM.
As to “GCCGUACGCAUGGAUACCAGUCUUUCACGACUGGGCAUGGAGUGAUGUUUCGUGAUGCUAGACCCUUGGCAGCCAUGCGUACGGC”, the “apparent KD of K4 kissing-loop reporter” value reads like this: (input ligand: FMN 200 uM) 201 nM; (input ligand: arginine 13.2 mM) 163 nM; (input ligand: none) 175 nM; under setting [1], 184 nM; under setting [2], 175 nM.
“GCCGUAGAUGGAAGGAGCGUGCGUGAAGUGAUGUUUCACGAAGAGUUUUCCACCUUAUAUGCACAGGUAGGUCGCCAUCUACGGC”: the “apparent KD of K4 kissing-loop reporter” value (input ligand: FMN 200 uM) was found to be 114 nM; the “apparent KD of K4 kissing-loop reporter” value (input ligand: arginine 13.2 mM) amounted to 99 nM; the “apparent KD of K4 kissing-loop reporter” value (input ligand: none) is 100 nM; the “apparent KD of K4 kissing-loop reporter” value under setting [1] is 105 nM; the “apparent KD of K4 kissing-loop reporter” value under setting [2] came out at 95.2 nM.
As to “GCCGUAGAUUGAAGGAGCGGACAGAUACGGGAAUCCAGUGAUGUUGGAAGGUAACUACUAGUCCAGGUAGGUCGCAAUCUACGGC”, the “apparent KD of K4 kissing-loop reporter” value is, setting by setting: (input ligand: FMN 200 uM) 143 nM; (input ligand: arginine 13.2 mM) 128 nM; (input ligand: none) 136 nM; under setting [1], 146 nM; under setting [2], 129 nM.
For “GCCUAGUGAUGUUGGGUAAUUUAAACCGGGCGAGGACCGGUACGGCCGCCACUCGGAAACACAACAAAAUUUAAUUUAAUUUAAA [Exclusion - Trytophan A]”, the “apparent KD of K4 kissing-loop reporter” value (input ligand: FMN 200 uM) was 176 nM; the “apparent KD of K4 kissing-loop reporter” value (input ligand: arginine 13.2 mM) was 138 nM; the “apparent KD of K4 kissing-loop reporter” value (input ligand: none) is 174 nM; the “apparent KD of K4 kissing-loop reporter” value under setting [1] amounted to 204 nM; the “apparent KD of K4 kissing-loop reporter” value under setting [2] was 152 nM.
In the case of “GCGAAGUGAUGUUUCGCCAAUAUUUGAUGAAAGGAUAUCUACUUGAAGAGAAGGUUCAUAUGACUCAAUACCUGACUUGGACCCG [theeternabot_sameState_KL_FMN_A_37]”, the “apparent KD of K4 kissing-loop reporter” value runs as follows: (input ligand: FMN 200 uM) 86.8 nM; (input ligand: arginine 13.2 mM) 84.2 nM; (input ligand: none) 81.4 nM; under setting [1], 82.9 nM; under setting [2], 74.6 nM.
On the same counts, the results for “GCGAUUCAGUGAUGUUGGAAAUACAGGGAUACCAGCCGAAAAUAAGGCCCUUGGCAGCUUAAUAGGAAAGAACUAAGAAAGACGC [Theophylline A Same State; Euphoria Solution 3]” are 556 nM, 603 nM, 671 nM, 755 nM and 460 nM.
As to “GCGCGUCAUGUCAGCGGUGACACUGUCGAUACCAGUGCCGAAAGGCGCCCUUGGCAGCGACGUGCUGGAGUGAUGUUCCAGCGUU [#2 Exclusion - Theophylline A Attempt #30 (HarryS)]”, the “apparent KD of K4 kissing-loop reporter” value (input ligand: FMN 200 uM) came to 154 nM; the “apparent KD of K4 kissing-loop reporter” value (input ligand: arginine 13.2 mM) was 135 nM; the “apparent KD of K4 kissing-loop reporter” value (input ligand: none) is 151 nM; the “apparent KD of K4 kissing-loop reporter” value under setting [1] stood at 149 nM; the “apparent KD of K4 kissing-loop reporter” value under setting [2] came out at 145 nM.

Values taken from the supplement of paper PMC9170038.
